Experimental data published in PMC2175198.
Blank lines part the entries; values can stand above or below the molecule they belong to.

Target: ribosomes (membrane-bound, carrying nascent chains) (S. cerevisiae (endogenous in yeast microsomes))
Assay: co-sedimentation

percent of Sec61p bound to ribosomes (25°C; sec61-3 strain): 30%
Molecule: Sec61p of the sec61-3 mutant (from UniProt P32915 1-480) (natural protein)

percent of Sec61p bound to ribosomes (25°C; wild-type and srp101-47 strains): 30%
percent of Sec61p bound to ribosomes (srp101-47 strain, 3 h at 37°C): 20%
B1: Sec61p (natural protein)
chain: MSSNRVLDLFKPFESFLPEVIAPERKVPYNQKLIWTGVSLLIFLILGQIPLYGIVSSETSDPLYWLRAMLASNRGTLLELGVSPIITSSMIFQFLQGTQLLQIRPESKQDRELFQIAQKVCAIILILGQALVVVMTGNYGAPSDLGLPICLLLIFQLMFASLIVMLLDELLSKGYGLGSGISLFTATNIAEQIFWRAFAPTTVNSGRGKEFEGAVIAFFHLLAVRKDKKRALVEAFYRTNLPNMFQVLMTVAIFLFVLYLQGFRYELPIRSTKVRGQIGIYPIKLFYTSNTPIMLQSALTSNIFLISQILFQKYPTNPLIRLIGVWGIRPGTQGPQMALSGLAYYIQPLMSLSEALLDPIKTIVYITFVLGSCAVFSKTWIEISGTSPRDIAKQFKDQGMVINGKRETSIYRELKKIIPTAAAFGGATIGALSVGSDLLGTLGSGASILMATTTIYGYYEAAAKEGGFTKNLVPGFSDLM
